Assay results published in patent US20100273160A1.

Biological target: T1, MIS type II receptor (MISRII) on mouse ovarian cancer cell lines MOVCAR 7 and 4306 (mouse) (UniProt Q8K592)
T1 sequence (looked up): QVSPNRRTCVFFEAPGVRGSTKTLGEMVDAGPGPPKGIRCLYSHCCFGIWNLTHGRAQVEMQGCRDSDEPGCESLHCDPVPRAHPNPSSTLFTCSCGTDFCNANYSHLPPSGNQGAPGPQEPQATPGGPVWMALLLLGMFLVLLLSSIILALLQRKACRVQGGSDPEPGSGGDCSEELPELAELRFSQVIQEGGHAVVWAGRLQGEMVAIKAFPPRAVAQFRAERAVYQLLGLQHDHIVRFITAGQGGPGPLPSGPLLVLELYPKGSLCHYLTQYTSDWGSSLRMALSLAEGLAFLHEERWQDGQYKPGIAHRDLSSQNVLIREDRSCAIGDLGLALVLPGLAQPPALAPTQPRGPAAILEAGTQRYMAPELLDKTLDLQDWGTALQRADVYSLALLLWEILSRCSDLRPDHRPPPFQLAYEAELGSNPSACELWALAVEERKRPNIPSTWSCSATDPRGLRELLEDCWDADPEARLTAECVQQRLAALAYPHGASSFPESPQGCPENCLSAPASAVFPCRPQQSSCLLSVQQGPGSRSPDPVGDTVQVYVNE
Experiment: cell-based or functional assay

MTT proliferation assay, 4306 SP cells after first sort, 10 µg/ml MIS, inhibition versus vehicle: 37% | MTT proliferation assay, 4306 SP cells after sort 2, MIS, inhibition: 60% | MTT proliferation assay, 4306 SP cells after sort 3, MIS, inhibition (not significant): 17% | MTT proliferation assay, MOVCAR 7 NSP cells after first sort, 10 µg/ml MIS, inhibition versus vehicle: 93% | MTT proliferation assay, MOVCAR 7 SP cells after first sort, 10 µg/ml MIS, inhibition versus vehicle: 86% | MTT proliferation assay, MOVCAR 7 SP cells after sort 2, MIS, inhibition: 93% | MTT proliferation assay, MOVCAR 7 SP cells after sort 3, MIS, inhibition: 94%
B1: recombinant human Mullerian Inhibiting Substance (MIS) (ligand)
chain: LRAEEPAVGTSGLIFREDLDWPPGSPQEPLCLVALGGDSNGSSSPLRVVGALSAYEQAFLGAVQRARWGPRDLATFGVCNTGDRQAALPSLRRLGAWLRDPGGQRLVVLHLEEVTWEPTPSLRFQEPPPGGAGPPELALLVLYPGPGPEVTVTRAGLPGAQSLCPSRDTRYLVLAVDRPAGAWRGSGLALTLQPRGEDSRLSTARLQALLFGDDHRCFTRMTPALLLLPRSEPAPLPAHGQLDTVPFPPPRPSAELEESPPSADPFLETLTRLVRALRVPPARASAPRLALDPDALAGFPQGLVNLSDPAALERLLDGEEPLLLLLRPTAATTGDPAPLHDPTSAPWATALARRVAAELQAAAAELRSLPGLPPATAPLLARLLALCPGGPGGLGDPLRALLLLKALQGLRVEWRGRDPRGPGRAQRSAGATAADGPCALRELSVDLRAERSVLIPETYQANNCQGVCGWPQSDRNPRYGNHVVLLLKMQARGAALARPPCCVPTAYAGKLLISLSEERISAHHVPNMVATECGCR
